Experimental data from PMC3287209 (Nucleic Acids Research, 2012).

B1: XRCC4^1–157 (domain or fragment)
chain: MERKISRIHLVSEPSITHFLQVSWEKTLESGFVITLTDGHSAWTGTVSESEISQEADDMAMEKGKYVGELRKALLSGAGPADVYTFNFSKESCYFFFEKNLKDVSFRLGSFNLEKVENPAEVIRELICYCLDTIAENQAKNEHLQKENERLLRDWND
B2: XLF^1–224 (domain or fragment)
chain: MEELEQGLLMQPWAWLQLAENSLLAKVFITKQGYALLVSDLQQVWHEQVDTSVVSQRAKELNKRLTAPPAAFLCHLDNLLRPLLKDAAHPSEATFSCDCVADALILRVRSELSGLPFYWNFHCMLASPSLVSQHLIRPLMGMSLALQCQVRELATLLHMKDLEIQDYQESGATLIRDRLKTEPFEENSFLEQFMIEKLPEACSIGDGKPFVMNLQDLYMAVTTQ

What was measured:
XLF wild-type = XLF wild-type (human, UniProt Q9H9Q4 1-299); assay: native gel or EMSA
crystal structure = molecular target: the molecule itself; assay: crystal structure

Binder | binding result (XLF wild-type) | stoichiometry N (crystal structure)
B1 | binds | –
B2 | – | 2
